The results in this text go back to paper PMC4169592.

The assay has as its target EGFP-Vinexin β (mouse). The assay can be described thus: FRET or BRET; acceptor photobleaching FRET in stress granules of live COS-7 cells; EGFP donor, mCherry RFP acceptor.

RFP-CPEB4 (natural protein) returned an FRET efficiency of 14.5%.
